Results reported in patent publication US20250289873A1 (published 2025).
Where two headings read alike, the source gives them in different places.

T1: FHR-4 (coated on plate, C3 convertase assembly assay) (UniProt Q92496 20-331)
T1 chain: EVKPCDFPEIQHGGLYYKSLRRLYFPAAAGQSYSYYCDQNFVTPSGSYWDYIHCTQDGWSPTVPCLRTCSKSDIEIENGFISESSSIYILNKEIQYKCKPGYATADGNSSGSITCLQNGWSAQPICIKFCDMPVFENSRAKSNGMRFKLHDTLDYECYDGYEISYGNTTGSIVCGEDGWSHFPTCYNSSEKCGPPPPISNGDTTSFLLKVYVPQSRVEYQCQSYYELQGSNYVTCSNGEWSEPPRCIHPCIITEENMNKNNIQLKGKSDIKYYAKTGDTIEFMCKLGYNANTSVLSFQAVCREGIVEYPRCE

T2: hCFHR4b
T2 chain: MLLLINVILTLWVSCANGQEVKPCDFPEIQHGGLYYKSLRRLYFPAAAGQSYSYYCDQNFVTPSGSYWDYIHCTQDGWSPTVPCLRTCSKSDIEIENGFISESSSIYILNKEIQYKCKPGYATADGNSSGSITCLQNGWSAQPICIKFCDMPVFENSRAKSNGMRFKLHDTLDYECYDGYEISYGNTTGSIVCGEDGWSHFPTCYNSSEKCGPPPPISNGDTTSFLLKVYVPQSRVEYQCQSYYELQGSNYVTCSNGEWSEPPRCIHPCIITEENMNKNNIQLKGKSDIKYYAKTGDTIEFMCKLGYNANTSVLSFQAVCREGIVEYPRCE


Columns and labels:
[1] = molecular target: hCFHR4; assay: SPR kinetics
[2] = molecular target: T1, FHR-4 (coated on plate, C3 convertase …); assay: C3 convertase assembly assay
[3] = molecular target: T1, FHR-4 (coated on plate, C3 convertase …); assay: C3 convertase assembly assay
[4] = molecular target: T2, hCFHR4b; assay: SPR kinetics

| Binder | Kd [1] [nM] | IC50 [2] [nM] | IC50 [3] [nM] | Kd [4] [nM] |
| --- | --- | --- | --- | --- |
| ATX-P-604 (antibody, V domains shown) VH: QVQLQQSGPGLVKPTQTLSLTCAISGDSVSSNSAAWNWIRQSPSRGLEWLGRTYYRSKWFNGYAVSVKSRITINPDASKNQFSLHLKSVTDEDTAVYYCATDRGELLHWYFDLWGRGTLVTVSS VL: EIVLTQSPDTLSLSPGERATLSCRASQTIRSSYLAWYQLKPGQAPRLLIYGASSRATGIPDRFSGSGSGTDFTLSISRLEPEDFAVYYCQQYGRSIIFGGGTKVEIKR | 0.222 |  |  |  |
| ATX-P-596 (antibody, V domains shown) VH: EVQLVESGGGLVQPGRSLRLSCAASGFSFDDYAMHWVRQVPGKGLEWVSGISWTGGSVGYADPVKGRFTISRDNAKNSLYLQMNSLRPEDTALYYCAKDMGDGYSRNWPFDYWGQGTLVTVSS VL: not shown | 0.225 |  |  |  |
| ATX-P-563 (antibody, V domains shown) VH: QVQLQESGPGLMKPSETLSLTCTVSGGSISSHYWSWIRQPPGKGLEWIGYIFYSGNINYNPSLKSRVTISVDTSKNQFSLKLRSVTTADTAVYYCARDRGGSYSYHFDCWGQGTLVTVSS VL: DIQMTQSPSSVSASVGDRVTITCRASQSFAGWLAWYQQKPGKAPKLLIYAASTLQSGVPSRFSGSGSGTDFTLTISSLQPEDFATYYCQQANSFPLTFGGGTKVEIKR | 1.05 |  |  |  |
| ATX-P-578 (antibody, V domains shown) VH: EVQLVESGGGLVQPGGSLRLSCAASGFTFSRYSMNWVRQAPGKGLEWVSYISSSSSTIFHADSVKGRFTISRDNAKNSLYLQMNSLRDEDTAVYYCARGNWNYYYMDVWGKGTTVTVSS VL: DIQMTQSPSTLSASVGDRVTISCRASQSVNSWLAWYQQKPGKAPKLLIYKASNLEGGVPSSFSGSGSGTEFTLTISSLQPDDFATYYCQQYDTSWTFGQGTKVEIKR | 25 |  |  |  |
| ATX-P-566 (antibody, V domains shown) VH: QVQLQQSGPGLVKPSQTLSLTCAISGDSVSSNSAAWNWIRQSPSRGLEWLGRTYYRSKWFNNYSVSVKSRIAINPDTSKNQFSLQLNSVTPEDTAVYYCARDLGELLDWYFDLWGRGTLVTVSA VL: EIVLTQSPGTLSLSPGDRATLSCRASQSVRNSYVAWYQQKPGQAPRLLIYGASSRATGIPDRFSGSGSGTDFSLTIGRLEPEDFVVYYCQQYGNSPLTFGGGTKVEIKR | 3.48 |  | 3.27 |  |
| ATX-P-564 (antibody, V domains shown) VH: EVQLVESGGGLVKPGGSLRLSCAASGFTFSSYTMNWVRQAPGKGLEWVSSISSSSSYTYYADSVRGRFTISRDNAKNSLYLQMSSLRAEDTAVYYCARSASIAAGMDVWGKGTTVTVSS VL: DIVMTQSPLSLPVTPGEPASISCRSSQSLLHSTGYNFLDWYLQKPGLSPQLLIYLASNRASGVPDRFSGSGSGTDFTLKISRVEAEDVGVYYCMQALQTPYTFGQGTKLEIKR | 3.56 |  | 3.94 |  |
| ATX-P-573 (antibody, V domains shown) VH: QVQLQQSGPGLVKPSQTLSLTCAISGDSVSSNSAAWNWIRQSPSRGLEWLGRTYYRSKLYSDYAVSVKSRITINPDTSRNQFSLQLNSVTPEDTAVYYCAREGGYTYGYDYWGQGTLVTVSS VL: DIQMTQSPSSVSASVGDRVTITCRASQGISSWLAWYQQKPGKAPKVLIYAASSLQSGVPSRFSGSGSGTDFTLTISSLQPEDFATYYCQQANSFPPTFGPGTKVDIKR | 23 |  |  |  |
| ATX-P-582 (antibody, V domains shown) VH: QVQLQESGPGLVKPSGTLSLTCAVSGGSISISKWWSWVRQPPGKGLEWIGEIYHTGSTNYHPSLKSRVTISVDKSKNQFYLKLNSVTAADTAVYYCARDELRLGELSPSLDIWGQGTMVTVSS VL: DIQMTQSPSSLSASVGDRVTITCRASQNINNYLNWFRQKPGKAPKLLIFAASSLQSGVPSRFSGSESGTDFTLTISSLQPEDFATYYCQQSYSTPLTFGGGTKVEIKR | 10 |  |  |  |
| ATX-P-600 (antibody, V domains shown) VH: EVQLVESGGGLVQPGRSLRLSCAASGFTFDDYAMHWVRQVPGRGLEWVSGISWSGGSIGYADSVKGRFTISRDNSKNSLYLQMNSLRAEDTALYYCTKDREDGYNYGGVFDYWGQGTLVTVSS VL: EIVLTQSPGTLSLSPGERATLSCRASQNVRGSYLAWYQQKPGQAPRLLIYGASNRATDIPDRFSGSGSGTDFTLTISGLEPEDFVVYYCQQYGSSYTFGQGTKVEIKR | 7.39 | 8.4 | 8.44 | 7.39 |
| ATX-P-591 (antibody, V domains shown) VH: QVQLVQSGAEVKKPGASVKVSCKASGYTFTSYGISWVRQAPGQGLEWMGWISAYNGNTNYAQKLQGRVTMTTDTSTSTAYMELRSLRSDDTAIYYCTRDLRGTAFDYWGQGTPVTVSS VL: DIQMTQSPSSLSASVGDRVTITCRASQSINTYLNWYQQKPGKAPKLLIYAASSLQSGVPSRFSGSGSGTDFTLTISSLQPEDFATYSCQHSFTTPFTFGPGTKLEIKR | 117 |  |  |  |

Now from value to binder:

| Kd [1] [nM] | IC50 [2] [nM] | IC50 [3] [nM] | Kd [4] [nM] | Binder |
| --- | --- | --- | --- | --- |
| 0.665 |  |  |  | ATX-P-577 (antibody, V domains shown) VH: QVQLQESGPGLVKPSGTLSLTCAVSGGSISSSNWWTWVRQPPGKGLEWIGETYHDGSTNYNPSLKSRVTISVDKSKNQFSLKLSSVTAADTAVYYCLEFYFDYWGQGTLVTVSS VL: DIQMTQSPSSLSASVGDRVTITCRASQDIRNDLGWYQQKPGKVPKRLIYAASSLQSGVPSRFSGSGSGTEFTLTISSLQPEDFASYYCLQYNNYPFTLGPGTKVDIKR |
| 0.326 | 4 | 4.09 | 0.326 | ATX-P-594 (antibody, V domains shown) VH: QVQLQQSGPGLVKPSQTLSLTCAISGDSVSSNSASWNWIRQSPSRGLEWLGTTYYRSKWFNVYAVSVKSRITINPDTSKNQFSLHLNSVTPEDTAIYFCTRDRGDLLHWYFDLWGRGTLVTVSS VL: EIVLTQSPGTLSLSPGERATLSCRASQSVSSSYLAWYQQKPGQSPRLLIYGASSRATGIPDRFSGSGSGTDFTLTISRLEPEDFAVYYCQQYGRSVTFGGGTKLEIKR |
| 4.26 |  |  |  | ATX-P-587 (antibody, V domains shown) VH: QVQLQQSGPGLVKPSQTLSLTCAISGDSVSSNSAAWNWIRQSPSRGLEWLGKTYYRSKWYNYYALSVKSRITINPDTSKNQFSLHLNSVTPEDTAVYYCARDGDYYLPSPFDLWGHGTMVTVSS VL: not shown |
| 16.9 | 5.9 | 5.94 | 16.9 | ATX-P-595 (antibody, V domains shown) VH: QVQLQQSGPGLVKPSQTLSLTCAISGDSVSSNSAAWNWIRQSPSRGLEWLGRTYYRSKWFNDYALSVKSRITINPDTSKNQFSLHLNSVTPEDTAVYYCAREPGIVAPGPFDYWGQGTLVTVSS VL: not shown |
| 0.973 | 4.2 | 4.28 | 0.973 | ATX-P-592 (antibody, V domains shown) VH: QVQLQQSGPGLVKPSQTLSLTCAISGDSVSSNSAAWNWIRQSPSRGLEWLGRTYYRSKWYSDYPLSVKSRITINPDTSKNQFSLQLNSVTPEDTAVYYCARDSGIVETTPFDYWGQGTLVTVSS VL: not shown |
| 1.62 |  |  |  | ATX-P-568 (antibody, V domains shown) VH: EVQLVESGGGLVQPGGSLRLSCAASGFPFSSYVMSWVRQAPGKGLEWVSVISVSGGSTFYADSVRGRFTISRDNSKNTLYLQVYSLRAEDTAVYYCAKDGLAVAGFDHWGQGTLVTVSS VL: DIQMTQSPSTLSASVGDRVTITCRASQSISTWLAWYQQKPGKAPKLLIHKASGLESGVPSRFSGSGSGTEFTLTISSLQPDDFATYYCQQYNSFSLIFGGGTRVEIKR |
| 6.9 |  |  |  | ATX-P-565 (antibody, V domains shown) VH: QVQLVESGGGVVQPGRSLRLSCAASGFTFNTYGIHWVRQAPGKGLEWVAVIWHDGSSKNYVDSVTGRFTISRDNSKNTVYLQMNSLRAEDTAVYYCARRGNWNYGFYYYYMDVWGKGTTVTVSS VL: DIVMTQSPLSLPVTPGEPASISCRSSQRLLHSSGYNYLDWYLQKPGQSPQLLIYLGSSRASGVPDRFSGSGSGTDFTLKISRVEAEDVGVYYCMQGLQTPPTFGQGTKVEIKR |
| 9.65 |  |  |  | ATX-P-581 (antibody, V domains shown) VH: QVQLQQSGPGLVKPSQTLSLTCAISGDSVSSNNAAWNWIRQSPSRGLEWLGRTYYRSKWYNAYAVSVKSRIIINPDTSRNQFSLQLNSVTPEDTAVYYCAREGGYIYGLDQWGQGTLVTVSS VL: DIQMTQSPSSVSASVGDRVTITCRASQGVNNWLAWYQQKPGKAPKLLIHAASSLLSGVPSRFSGSGSGTDFTLTITSLQPEDFATYYCQQANSFPITFGQGTRLEIKR |
| 0.9 |  |  |  | ATX-P-576 (antibody, V domains shown) VH: EVQLVESGGGLVQPGRSLRLSCTASGFTFDDYEMHWVRQAPGKGLEWVSDISRNSGRIGYADSVKGRFTISRDNAKNSLYLQMNSLRAEDTALYYCAKDIWGSGYFDYWGQGILVTVSS VL: DIQMTQSPSSVSASVGDRVTITCRTSQGIRNWLAWYQQKPGKAPKLLIYAASSLQTGGPSRFSGSGSGTDFTLTISSLQPEDFATYYCQQANSFPYTFGQGTKLEIKR |
| 0.917 | 7.6 | 7.6 | 0.917 | ATX-P-603 (antibody, V domains shown) VH: QVQLQESGPGLVKPSGTLSLTCAVSGGSISGSHWWSWFRQPPGKGLEWIGEIYHTGSTNKNPSLKSRVTISLDKSKNQFSLRLRSVTDADTAVYYCARDQYTGSPRDAFDIWGQGTMVTVSS VL: not shown |
